Two molecules from patent CN111196850A (BEIJING HUIZHI HEYUAN BIOTECHNOLOGY CO LTD, dated 2020) can be followed below.

For one experiment, the target named is T1, 人TSLP (human, UniProt Q969D9 29-159).
T1 construct: also called hTSLP; 人胸腺基质淋巴细胞生成素
The experiment in a line: BLI (ForteBio Blitz). Background: In BLI a coated tip is dipped into the sample, and binding shifts an interference pattern.

The target in experiment [1] is rhTSLP-hFc (human). The experiment in a line: competition ELISA: rhTSLP-hFc coated, antibody titrated against 2 μg/ml rhTSLPR-His, anti-His-HRP detection. For orientation: In an ELISA, binding on a coated surface is turned into a signal by an enzyme label.
Experiment [2] deals with rhTSLP-hFc (human). The experiment in a line: cell-based or functional assay.
Experiment [3] concerns the target rhTSLP-hFc (human). In words: competition ELISA: rhTSLP-hFc coated, antibody titrated against 2 μg/ml rhTSLPR-His, anti-His-HRP detection. This is another data set of the same source.

Like-named read-outs stand apart in the source and are kept apart here.

B1: 鼠源TSLP单克隆抗体7A9E3G10E5(6K/3H) (antibody, mouse IgG1, kappa)
heavy: EVKLVETGAELVRPGALVKLSCKTSGFNIKDYYMHWVKQRPEQGLEWIGWIDPENGNTIYDPKFQGKASITADTSSNTAYLHLSSLTSEDTAVYYCAREGDGNYLWFAYWGQGTLVTVSAAKTTPPSVYPLAPGSAAQTNSMVTLGCLVKGYFPEPVTVTWNSGSLSSGVHTFPAVLESDLYTLSSSVTVPSSPRPSETVTCNVAHPASSTKVDKKIVPRDCGCKPCICTVPEVSSVFIFPPKPKDVLTITLTPKVTCVVVDISKDDPEVQFSWFVDDVEVHTAQTQPREEQFNSTFRSVSELPIMHQDWLNGKEFKCRVNSAAFPAPIEKTISKTKGRPKAPQVYTIPPPKEQMAKDKVSLTCMITDFFPEDITVEWQWNGQPAENYKNTQPIMNTNGSYFVYSKLNVQKSNWEAGNTFTCSVLHEGLHNHHTEKSLSHSPGK
light: DILLTQSPSSLSASLGGKVIITCKASQDINKYIAWYQHKPGKGLRLLIHYTSTLEPGIPSRFSGSGSGRDYSFSISNLEPEDIATYYCLHYDNLLTFGDGTKLELKRADAAPTVSIFPPSSEQLTSGGASVVCFLNNFYPKDINVKWKIDGSERQNGVLNSWTDQDSKDSTYSMSSTLTLTKDEYERHNSYTCEATHKTSTSPIVKSFNRNEC
notes: also called 鼠源单克隆抗体6K/3H
For B1, in the experiment with 人TSLP, binding was put at a Kd of 20.1 nM, the koff stood at 0.00506 s⁻¹ and the on-rate (kon) worked out at 252000 M⁻¹ s⁻¹. For the same molecule, in the experiment with rhTSLP-hFc [1], the IC50 came out at 0.428 µg/mL.

B2: 嵌合抗体6K-3H (antibody, human IgG1, kappa)
heavy: not shown
light: DILLTQSPSSLSASLGGKVIITCKASQDINKYIAWYQHKPGKGLRLLIHYTSTLEPGIPSRFSGSGSGRDYSFSISNLEPEDIATYYCLHYDNLLTFGDGTKLELKRTVAAPSVFIFPPSDEQLKSGTASVVCLLNNFYPREAKVQWKVDNALQSGNSQESVTEQDSKDSTYSLSSTLTLSKADYEKHKLYACEVTHQGLSSPVTKSFNRGEC
Turning to B2, the “IC50, 抑制TSLP刺激的293F转染细胞STAT5-荧光素酶活性” value with rhTSLP-hFc [2] was 0.26 µg/mL. Besides, in the experiment with rhTSLP-hFc [3], the IC50 amounted to 0.609 µg/mL.

As a reminder, the Kd is the concentration at which binding is half-saturated. A low value points to higher affinity. Usually koff stands for the first-order rate constant of dissociation. Read a high koff as fast dissociation. Broadly, the kon is the rate constant with which the complex forms. A lower kon goes with slower complex formation. In general, IC50 refers to the point on the concentration scale where inhibition reaches its midpoint. Low readings indicate inhibition by little substance, high ones a need for much substance.
